The values that follow come from US20190134064A1, “SELECTIVELY DEGLYCOSYLATED VITAMIN D-BINDING PROTEIN (GCMAF), CHOLECALCIFEROL (CALCIOL), AND PRODUCTION METHOD” (HG PHARMA GMBH, priority 2016, published 2019).

Data set [1] has as its system Peritoneal mouse cells. Briefly: Phagocytosis activation (phagocytosis index, opsonized sheep red blood cells). The class given is cell-based. The following applies: for phagocytic activity (comparison in words): compared with GcMAF-calcitriol or GcMAF alone; for Macrophage activity: phagocytosis index, three hours of drug treatment, opsonized SRBC cultured for 90 minutes, 250 macrophages counted. As for the experimental part:
Phagocytosis activation was determined as described by Hammarstrom S and Kabat EA in “Studies on specificity and binding properties of the blood group A reactive hemagglutinin from Helix pomatia”, Biochemistry 10: 1684-1692, 1971.
Peritoneal mouse cells were coated in a 24-well plate onto cover glasses. After three hours of drug treatment, the cultures were tested for phagocytic activity. Sheep red blood cells (SRBC) were opsonized using hemolytic rabbit serum (anti-sheep red blood C12HSB cells, Serotec Ltd. England). Opsonized SRBC (0.5%) in RPMI 1640 (serum-free) were layered onto each macrophage-coated cover glass and cultured for 90 minutes. The non-internalized erythrocytes were lyzed by immersing the cover glass in a hypotonic solution (⅕ PBS). The macrophages were fixed with methanol, air-dried, and Giemsa stained. The number of phagocytosed erythrocytes per cell was microscopically determined; 250 macrophages were counted for each data point. The data are expressed as a phagocytosis index, which is defined as the percentage of macrophages with engulfed erythrocytes multiplied by the average number of erythrocytes per macrophage.

Data set [2] deals with monocytes from human whole blood. As to the kind of experiment: Formation of superoxide radical anions. The class given is cell-based. Details: Superoxide activity: unit not given here. The following applies: for Superoxide activity: test substance 50 pg/ml, 3 h incubation; for formation of superoxide radical anions (comparison in words): compared with the other substances tested. As for the experimental part:
Determination of the formation of superoxide radical anions in monocytes from human whole blood was carried out as follows:
Isolation of peripheral mononuclear cells is carried out by density gradient centrifugation from heparinized whole blood. The blood is diluted 1:2 with PBS (without Ca/Mg) and layered onto 15 ml of Histopaque-1077. After this, the cell suspension is centrifuged for 30 min at 700×g and 20° C. The interphase with the mononuclear cells is carefully removed with a Pasteur pipette, made up with 30 ml of PBS (without Ca/Mg), and centrifuged for 5 min at 350×g. The supernatant is decanted, and the cells are taken up in RPMI 1640 medium and counted in the flow cytometer. The cells are adjusted to 10^5 monocytes/ml. For the test batch, 1 ml of cell suspension is pipetted into each 5 ml tube. LPS 100 ng/ml is used as a control. The test substance (GcMAF, GcMAF-calciol or GcMAF-calcitriol) is used in a concentration of 50 pg/ml. The cells are incubated for a total of 3 h in the CO2 incubator. 15 min before the end of incubation, 5 μl each of CD45-V450 antibody and 1 μl of a 1 mM MitoSOX stock solution are added. After this, the cell suspension is made up with 2 ml each of RPMI medium and centrifuged for 5 min at 350×g at room temperature. The supernatant is decanted, and the cells are resuspended in 500 μl of RPMI medium. The cells are measured and analyzed in the flow cytometer. Evaluation is carried out based on the average fluorescence intensity, as described by Saharuddin Bin Mohamad, Hideko Nagasa Wa, Yoshihiro Uto, and Hitoshi Hori in “Preparation of Gc Protein-Derived Macrophage Activating Factor (GcMAF) and its Structural Characterization and Biological Activities”, Anticancer Research 22: 4297-4300 (2002).
Superoxide formation assay
The method used was a modified version of that described by Johnston et al. In brief, after three-hour treatment of the samples, the plates were washed twice with PBS (-) and once with Krebs-Ringer phosphate buffer, pH 7.4, 1.5 ml of 50 μM cytochrome C in Krebs-Ringer phosphate buffer was added, and phorbol myristate acetate (PMA) was added to a final concentration of 5 μg/ml in each well and cultured for 90 minutes in a moistened incubator.
The reaction was stopped using an ice bath. The cultured medium was placed in an Eppendorf tube and centrifuged at 8000 g. The optical density of the supernatant was spectrometrically determined at 550 nm with reference at 540 nm (U-2000, Hitachi) using mixtures of plates without cells as a blank measurement. The concentration of reduced cytochrome C was determined using the equation E550nm=[…].

Data set [3] has as its system receptor sites of the ELISA test. Briefly: Binding to the receptor sites of the ELISA test for vitamin D. As to conditions: ELISA test selective for calcidiol. The source says: The standard test for vitamin D in the blood, the ELISA test, is selective for calcidiol (which has an OH group at position 25). […] The same applies for the complex GcMAF-calcitriol.
Data set [4] is described as follows: Vitamin D content in the blood after oral administration. The class given is in vivo. The source says: (§1) The complex according to the invention can be orally administered. […] Moreover, the complex according to the invention is not toxic.
The nature of data set [5]: Toxicity.
Text: as §1

In data set [6] the test system is monocytic cells. As to the kind of experiment: Monocytic cells after oral administration. The class given is in vivo.

B1: GcMAF-calcitriol: comparative complex; same production method carried out with calcitriol instead of cholecalciferol (protein, UniProt P02774 17-474, looked up)
Vitamin D-binding protein: LERGRDYEKNKVCKEFSHLGKEDFTSLSLVLYSRKFPSGTFEQVSQLVKEVVSLTEACCAEGADPDCYDTRTSALSAKSCESNSPFPVHPGTAECCTKEGLERKLCMAALKHQPQEFPTYVEPTNDEICEAFRKDPKEYANQFMWEYSTNYGQAPLSLLVSYTKSYLSMVGSCCTSASPTVCFLKERLQLKHLSLLTTLSNRVCSQYAAYGEKKSRLSNLIKLAQKVPTADLEDVLPLAEDITNILSKCCESASEDCMAKELPEHTVKLCDNLSTKNSKFEDCCQEKTAMDVFVCTYFMPAAQLPELPDVELPTNKDVCDPGNTKVMDKYTFELSRRTHLPEVFLSKVLEPTLKSLGECCDVEDSTTCFNAKGPLLKKELSSFIDKGQELCADYSENTFTEYKKKLAERLKAKLPDATPTELAKLVNKHSDFASNCCSINSPPLYCDSEIDAELKNIL
modifications: deglycosylated (GcMAF); complexed with calcitriol
notes: comparative complex; same production method carried out with calcitriol instead of cholecalciferol
Take B1: in data set [1], the “phagocytic activity (comparison in words)” value is “virtually identical to the phagocytic activity of GcMAF alone” and the Macrophage activity was found to be 73.2. Besides, the Superoxide activity in data set [2] came out at 188. For the same molecule, the “binding to the receptor sites of the ELISA test” value (shortened to “binding to the receptor sites”) in data set [3] is “does not bind”.

B2: Gc-calcidiol: complex of vitamin D-binding protein (Gc) and calcidiol (protein, UniProt P02774 17-474, looked up)
Vitamin D-binding protein: B1 Vitamin D-binding protein
modifications: complexed with calcidiol
On to B2, for which, in data set [3], the “binding to the receptor sites” value is “does not bind”.

B3: GcMAF-calciol: dimeric complex of a selectively deglycosylated vitamin D-binding protein (GcMAF) and cholecalciferol (calciol) (protein, UniProt P02774 17-474, looked up)
Vitamin D-binding protein: B1 Vitamin D-binding protein
modifications: deglycosylated (GcMAF); complexed with cholecalciferol
In the case of B3, in data set [1], the “phagocytic activity (comparison in words)” value was “significantly higher” and the Macrophage activity worked out at 83.5. Besides, in data set [2], the “formation of superoxide radical anions (comparison in words)” value was “lower” and the Superoxide activity came out at 142. Moreover, the “formation of superoxide radical anions (comparison in words)” value in data set [2] (listed as complex according to the invention) is reported as “lowest of all of the substances tested”. The “binding to the receptor sites” value in data set [3] is recorded as “does indeed bind”. Also, the “vitamin D content in the blood” value in data set [4] (12 h after oral administration, 35.9 nM before administration) turned out to be 44.25 nM. Moreover, the “absorption in oral administration” value in data set [4] (oral administration) was “absorbed by the body in oral administration”. Further, the toxicity entry in data set [5] is “not toxic”. The “monocytic cells, subsequently converted into macrophages” value in data set [6] is listed as “significant increase”.

B4: GcMAF, produced as described: selectively deglycosylated vitamin D-binding protein, self-produced, with final filtration via a 100,000 Da filter (protein, UniProt P02774 17-474, looked up)
Vitamin D-binding protein: B1 Vitamin D-binding protein
modifications: selectively deglycosylated (GcMAF)
Take B4: in data set [1], the Macrophage activity came to 73.0. In data set [2], the Superoxide activity came out at 199.

B5: GcMAF, purchased from Metavectrum, Germany: GcMAF purchased from Metavectrum, Germany (protein, UniProt P02774 17-474, looked up)
Vitamin D-binding protein: B1 Vitamin D-binding protein
modifications: selectively deglycosylated (GcMAF)
Molecule B5 yielded a Macrophage activity in data set [1] of 68. This molecule also registered a Superoxide activity in data set [2] of 150.
